Residue numbers refer to the chain shown, from its start. In names and notes the source's numbering stands.
B1: Alcaligenes faecalis Penicillin G acylase mutant A:F147Y (Alcaligenes faecalis; F173Y) (protein)
chain 1: QVQSVEVMRDSYGVPHVFADSHYGLYYGYGYAVAQDRLFQMDMARRSFVGTTAAVLGPGEQDAYVKYDMQVRQNFTPASIQRQIAALSKDERDIFRGYADGYNAYLEQVRRRPELLPKEYVDFDFQPEPLTDFDVVMIWVGSMANRYSDTNLEVTALAMRQSLEKQHGPERGRALFDELLWINDTTAPTTVPAPAAEHKPQA
chain 2: SNLWSTRPERVQEGSTVLINGPQFGWYNPAYTYGIGLHGAGFDVVGNTPFAYPIVLFGTNSEIAWGATAGPQDVVDIYQEKLNPSRADQYWFNNAWRTMEQRKERIQVRGQADREMTIWRTVHGPVMQFDYDQGAAYSKKRSWDGYEVQSLLAWLNVAKARNWTEFLDQASKMAISINWYYADKHGNIGYVSPAFLPQRPADQDIRVPAKGDGSMEWLGIKSFDAIPKAYNPPQGYLVNWNNKPAPDKTNTDTYYWTYGDRMNELVSQYQQKDLFSVQEIWEFNQKASYSDVNWRYFRPHLEKLAQQLPADDSSKAALTMLLAWDGMEQDQGGQNAGPARVLFKTWLEEMYKQVLMPVVPESHRAMYSQTGFATQQGPNPGSINLSMGTKVLLRALVLEAHPDPKRVNVFGERSSQEIMHTALQNAQARLSQEQGAQMARWTMPTSVHRFSDKNFTGTPQTMPGNTFAFTGYQNRGTENNRVVFDAKGVEFCDAMPPGQSGFTDRNGVRSPHYEDQLKLYENFECKTMDVTHADIRRNAQSSTMLLIQPQP
notes: alpha 202 aa, beta 551 aa; recombinant, E. coli host

How the values were obtained:
[1] = biological target: T1, Alcaligenes faecalis Penicillin G acylase, wild type (α subunit SEQ ID NO:27, β subunit SEQ ID NO:32) (Alcaligenes faecalis, UniProt O34142); test: Deacylation kinetics and phenylacetic acid product inhibition, wild type PenG acylase; format: biochemical; details: Table 8, wt AF; NIPAB, 0.1 M NaH2PO4, pH 7.5, 25° C.
T1 construct: alpha 202 aa, beta 551 aa; likely recombinant, E. coli host
T1 sequence (O34142 27-228): B1 chain 1 with Y147F
T1 sequence (O34142 266-816): B1 chain 2
Experimental: In order to determine enzymatic activity the acylases were incubated with substrate at room temperature in buffered solution. In case β-lactamase impurity was expected to be present in the enzyme preparations, 1.0 mM -lactamase inhibitor 6-bromo-penicillanic acid was added to the assay. The reactions were stopped by adding an excess PMSF. For some mutants which were less sensitive to PMSF inhibition, the reactions were stopped by adding 0.5 M HCl or 0.5 M acetic acid until the pH was between 3 and 4. When reactions were subsequently analysed by HPLC, the reactions were stopped by dilution with the correponding elution solvent (see table 1). […]
(§1) The composition of the reaction mixtures was determined by high-performanceliquid chromatography (HPLC)(table 1). Concentrations were determined by using standards of known concentration.
In a continuous assay Penicillin G acylase was assayed spectro-fotometrically with the chromogenic substrate NIPAB [6-nitro-3-phenylacetamido-benzoic acid]. The liberation of 3-amino-6-nitrobenzoic acid was monitored by measuring the extinction at 405 nm in a Kontron 610 kinetic spectrofotometer. […]
Initial rate measurements were performed with excess substrate over the enzyme. Catalytic parameters were derived from least-squares fitting of the measured initial rates plotted for various substrate concentrations according to the Michaelis-Menten equation. […]

[2] = substrate: CC1=C(C(=O)O)N2C(=O)[C@@H](NC(=O)Cc3ccccc3)[C@H]2SC1; test: Deacylation kinetics, mutant A:F147Y; format: biochemical, Alcaligenes faecalis; details: other: A:F147Y; 20 mM NaH2PO4, pH 7.5, 37° C.; pH 7.5; 37.0 °C
Experimental: (§2) In case β-lactamase impurity was expected to be present in the enzyme preparations, 1.0 mM -lactamase inhibitor 6-bromo-penicillanic acid was added to the assay. The reactions were stopped by adding an excess PMSF. For some mutants which were less sensitive to PMSF inhibition, the reactions were stopped by adding 0.5 M HCl or 0.5 M acetic acid until the pH was between 3 and 4. When reactions were subsequently analysed by HPLC, the reactions were stopped by dilution with the correponding elution solvent (see table 1). In addition substrates were incubated under assay conditions in absence of enzyme. If necessary enzyme assays were corrected for non-enzymatic hydrolysis
as §1
(§3) In a continuous assay Penicillin G acylase was assayed spectro-fotometrically with the chromogenic substrate NIPAB [6-nitro-3-phenylacetamido-benzoic acid]. The liberation of 3-amino-6-nitrobenzoic acid was monitored by measuring the extinction at 405 nm in a Kontron 610 kinetic spectrofotometer. […] Initial rate measurements were performed with varying concentration of NIPAB.
(§4) The kinetics of enzymatic hydrolysis of PenG, PenV, CefG were also studied by alkaline titration (0, OlM KOH), using a Radiometer pH-stat. All experiments were carried out in a buffer free medium.
(§5) Initial rate measurements were performed with excess substrate over the enzyme. Catalytic parameters were derived from least-squares fitting of the measured initial rates plotted for various substrate concentrations according to the Michaelis-Menten equation.

[3] = substrate: CC1(C)S[C@@H]2[C@H](NC(=O)[C@H](N)c3ccc(O)cc3)C(=O)N2[C@H]1C(=O)O; test: Deacylation kinetics, mutant A:F147Y; format: biochemical, Alcaligenes faecalis; details: other: A:F147Y; 20 mM NaH2PO4, pH 7.0, 37° C.; pH 7.0; 37.0 °C
Experimental: as §2, §1, §3, §4, §5

[4] = substrate: CC1(C)S[C@@H]2[C@H](NC(=O)Cc3ccccc3)C(=O)N2[C@H]1C(=O)O; test: Deacylation kinetics, mutant A:F147Y; format: biochemical, Alcaligenes faecalis; details: other: A:F147Y; 40 mM NaH2PO4, pH 7.5, 37° C.; pH 7.5; 37.0 °C
Experimental: as §2, §1, §3, §4, §5

[5] = substrate: O=C(Cc1ccccc1)Nc1ccc([N+](=O)[O-])c(C(=O)O)c1; test: Deacylation kinetics, mutant A:F147Y; format: biochemical, Alcaligenes faecalis; details: other: A:F147Y; 0.1M NaH2PO4, pH 7.5, 25° C.; pH 7.5; 25.0 °C
Experimental: as §2, §1, §3, §4, §5

[6] = substrate: CC1(C)S[C@@H]2[C@H](NC(=O)[C@H](N)c3ccccc3)C(=O)N2[C@H]1C(=O)O; test: Deacylation kinetics, mutant A:F147Y; format: biochemical, Alcaligenes faecalis; details: other: A:F147Y; 20 mM NaH2PO4, pH 7.0, 37° C.; pH 7.0; 37.0 °C
Experimental: as §2, §1, §3, §4, §5

[7] = substrate: CC1(C)S[C@@H]2[C@H](NC(=O)COc3ccccc3)C(=O)N2[C@H]1C(=O)O; test: Deacylation kinetics, mutant A:F147Y; format: biochemical, Alcaligenes faecalis; details: other: A:F147Y; 40 mM NaH2PO4, pH 7.5, 37° C.; pH 7.5; 37.0 °C
Experimental: as §2, §1, §3, §4, §5

[8] = substrate: NC(=O)[C@H](N)c1ccccc1; test: Deacylation kinetics, mutant A:F147Y; format: biochemical, Alcaligenes faecalis; details: other: A:F147Y; 20 mM NaH2PO4, pH 7.0, 37° C.; pH 7.0; 37.0 °C
Experimental: as §2, §1, §3, §4, §5

Molecule	Vmax [1] [U/mg]	Km [2] [µM]	Vmax [2] [U/mg]	Km [3] [µM]	Vmax [3] [U/mg]	Km [4] [µM]	Vmax [4] [U/mg]	Km [5] [µM]	Vmax [5] [U/mg]	Km [6] [µM]	Vmax [6] [U/mg]	Km [7] [µM]	Vmax [7] [U/mg]	Km [8] [µM]	Vmax [8] [U/mg]
O=C(Cc1ccccc1)Nc1ccc([N+](=O)[O-])c(C(=O)O)c1 [NIPAB, 6-nitro-3-phenylacetamido-benzoic acid]	37.0														
B1		6	4.0	19000	0.1	4	5.9	5	18.0	2600	13.6	51	0.8	1700	32.7

Reference: patent US6033823A, “Mutated penicillin G acylase genes” (priority 1994, dated 2000)
